Source: article PMC7707563, “Lack of evidence for expression and function of IL-39 in human immune cells” (PLoS ONE, 2020)

Key:
[1] = target: human IL-23 receptor on HEK-Blue IL-23 cells (human) (UniProt Q5VWK5)
[2] = target: T1, human IL-23 p19 (aa20-189) (human, UniProt Q9NPF7 20-189); assay: ELISA; sandwich: plate coated with anti-p19 antibody, concentrated supernatants of p19 and EBI3-His transfected HEK293FT cells 2 hrs at room temperature, detection with biotinylated EBI3 antibody and HRP-Avidin; conditions: partners not purified
T1 construct: human IL-23 p19 subunit, aa20-189, ORF in the mammalian expression vector pRS5a, untagged; The stated range lacks the protein's own signal peptide, yet the protein is secreted; also called IL-23A-p19; source: HEK293FT, transfected (pRS5a-IL23p19), in concentrated supernatant
T1 sequence (looked up): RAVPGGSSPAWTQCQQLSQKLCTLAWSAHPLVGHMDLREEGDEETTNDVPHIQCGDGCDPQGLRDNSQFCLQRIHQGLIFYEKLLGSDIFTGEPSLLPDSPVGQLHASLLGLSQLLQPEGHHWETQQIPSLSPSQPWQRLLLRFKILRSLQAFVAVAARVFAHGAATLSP

Chain of human IL-23 receptor on HEK-Blue IL-23 cells (human) (Q5VWK5 24-629): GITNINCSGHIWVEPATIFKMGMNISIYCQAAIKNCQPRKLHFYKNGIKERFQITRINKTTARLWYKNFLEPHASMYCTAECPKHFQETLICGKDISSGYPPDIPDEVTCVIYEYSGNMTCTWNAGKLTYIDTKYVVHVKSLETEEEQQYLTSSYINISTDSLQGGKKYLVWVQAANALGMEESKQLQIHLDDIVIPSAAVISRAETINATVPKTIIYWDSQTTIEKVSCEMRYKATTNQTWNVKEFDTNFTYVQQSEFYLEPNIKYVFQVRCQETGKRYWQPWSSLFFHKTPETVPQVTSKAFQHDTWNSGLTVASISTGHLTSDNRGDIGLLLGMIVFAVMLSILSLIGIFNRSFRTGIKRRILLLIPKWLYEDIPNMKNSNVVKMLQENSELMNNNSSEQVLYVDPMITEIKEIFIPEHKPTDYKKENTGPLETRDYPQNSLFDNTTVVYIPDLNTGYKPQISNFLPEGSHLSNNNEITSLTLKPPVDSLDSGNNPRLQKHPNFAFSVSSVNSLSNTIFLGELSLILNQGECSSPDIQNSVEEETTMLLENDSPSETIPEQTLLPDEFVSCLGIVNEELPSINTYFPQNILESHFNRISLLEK

## recombinant human IL-23 (from UniProt Q9NPF7 20-189; P29460 23-328) (complex)
[1]
  STAT3 activity (SEAP reporter) over background in HEK-Blue IL-23 cells, various concentrations of IL-23, concentration-dependent; number printed for 2 pM IL-23: 2.5 fold

B1: C-terminally 10 x His-tagged EBI3 (natural protein, human, UniProt Q14213 21-229, looked up)
chain: RKGPPAALTLPRVQCRASRYPIAVDCSWTLPPAPNSTSPVSFIATYRLGMAARGHSWPCLQQTPTSTSCTITDVQLFSMAPYVLNVTAVHPWGSSSSFVPFITEHIIKPDPPEGVRLSPLAERQLQVQWEPPGSWPFPEIFSLKYWIRYKRQGAARFHRVGPIEATSFILRAVRPRARYYVQVAAQDLTDYGELSDWSLPATATMSLGK
notes: human Epstein-Barr Virus-induced 3 (EBI3), aa21-229, ORF in the mammalian expression vector pRS5a; The limits aa21-229 are printed for EBI3; also called EBI3-His; His-EBI3; source: HEK293FT, transfected (pRS5a-EBI3-His10), in concentrated supernatant; not shown: His10, C-terminal, kept
[2]
  fold increase in optical density against supernatants of mock or single transfected cells: ~2.5 fold
